By stoichiometry N is commonly meant the number of molecules, sites or subunits per partner or assembly. Usually Kd stands for the equilibrium constant for the complex coming apart.

“Also recorded” adds a separate entry of the source. The star is where a group is joined. Biotin = O=C1N[C@H]2[C@H](CS[C@H]2CCCCC(=O)*)N1

First the molecules themselves.
B1: DMC1 (untagged full-length human DMC1, wild type) (natural protein, UniProt Q14565 1-340, looked up)
chain: MKEDQVVAEEPGFQDEEESLFQDIDLLQKHGINVADIKKLKSVGICTIKGIQMTTRRALCNVKGLSEAKVDKIKEAANKLIEPGFLTAFEYSEKRKMVFHITTGSQEFDKLLGGGIESMAITEAFGEFRTGKTQLSHTLCVTAQLPGAGGYPGGKIIFIDTENTFRPDRLRDIADRFNVDHDAVLDNVLYARAYTSEHQMELLDYVAAKFHEEAGIFKLLIIDSIMALFRVDFSGRGELAERQQKLAQMLSRLQKISEEYNVAVFVTNQMTADPGATMTFQADPKKPIGGHILAHASTTRISLRKGRGELRIAKIYDSPEMPENEATFAITAGGIGDAKE

For data set [1], the target named is T1, DMC1 (Homo sapiens, UniProt Q14565).
T1 sequence (Q14565 1-340): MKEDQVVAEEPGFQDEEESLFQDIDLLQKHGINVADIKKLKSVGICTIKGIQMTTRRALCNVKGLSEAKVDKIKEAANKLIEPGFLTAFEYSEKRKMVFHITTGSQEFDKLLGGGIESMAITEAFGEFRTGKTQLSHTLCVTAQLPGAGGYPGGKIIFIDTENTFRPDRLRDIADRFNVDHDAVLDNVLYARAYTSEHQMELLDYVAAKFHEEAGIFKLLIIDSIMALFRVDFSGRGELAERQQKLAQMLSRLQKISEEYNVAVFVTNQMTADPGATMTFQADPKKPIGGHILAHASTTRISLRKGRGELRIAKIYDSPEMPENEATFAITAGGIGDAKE
Briefly: Biolayer interferometry. Format: binding. The conditions noted are these: immobilized biotinylated peptide, DMC1 concentration of 5 μM, 25°C. In general terms: BLI is a label-free optical method that tracks binding on a fibre tip over time.

Another data set concerns DMC1–ssDNA filaments. The experiment in a line: Electrophoretic mobility shift assay. Format: binding, human. The conditions noted are these: EMSA, 2 μM DMC1, 2 μM PhePP F2s3, 90 nt ssDNA, Ca-ATP, 30 min 37°C. Background: In EMSA bound probe runs differently from free probe, usually more slowly.
The data set “crystal structure” concerns the molecule itself. The experiment in a line: crystal structure.
Data set [2] addresses B1. The experiment in a line: pull-down.
For data set [3], the target named is B1. The experiment in a line: BLI.
Data set [4] has as its target T2, DMC1 (human, UniProt Q14565 1-340).
T2 sequence: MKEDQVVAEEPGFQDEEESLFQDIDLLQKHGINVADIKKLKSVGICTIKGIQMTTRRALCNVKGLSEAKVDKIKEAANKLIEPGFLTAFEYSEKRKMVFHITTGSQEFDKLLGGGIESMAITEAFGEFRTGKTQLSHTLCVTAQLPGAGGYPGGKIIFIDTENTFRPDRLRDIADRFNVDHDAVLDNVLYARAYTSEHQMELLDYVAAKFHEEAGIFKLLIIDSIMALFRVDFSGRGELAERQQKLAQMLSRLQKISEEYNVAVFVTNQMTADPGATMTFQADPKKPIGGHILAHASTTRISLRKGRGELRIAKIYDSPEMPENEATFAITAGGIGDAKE
The experiment in a line: EMSA.

Another data set concerns the target T3, DMC1 F89A (human, UniProt Q14565 1-340, F89A).
T3 sequence: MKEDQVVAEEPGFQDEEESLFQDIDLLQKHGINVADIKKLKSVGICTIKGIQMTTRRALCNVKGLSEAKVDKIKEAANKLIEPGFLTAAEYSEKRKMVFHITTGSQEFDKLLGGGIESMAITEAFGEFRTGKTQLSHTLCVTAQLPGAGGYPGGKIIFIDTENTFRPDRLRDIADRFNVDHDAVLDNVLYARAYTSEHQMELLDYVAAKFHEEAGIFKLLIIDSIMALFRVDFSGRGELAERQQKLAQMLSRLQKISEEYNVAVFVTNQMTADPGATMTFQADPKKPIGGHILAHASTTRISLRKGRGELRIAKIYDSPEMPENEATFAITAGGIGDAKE
Briefly: EMSA.

The next data set addresses T4, DMC1;BRCA2 F2s3 (PhePP) (human;human, UniProt Q14565;P51587 1-340;2379-2433, |).
T4 sequence 1: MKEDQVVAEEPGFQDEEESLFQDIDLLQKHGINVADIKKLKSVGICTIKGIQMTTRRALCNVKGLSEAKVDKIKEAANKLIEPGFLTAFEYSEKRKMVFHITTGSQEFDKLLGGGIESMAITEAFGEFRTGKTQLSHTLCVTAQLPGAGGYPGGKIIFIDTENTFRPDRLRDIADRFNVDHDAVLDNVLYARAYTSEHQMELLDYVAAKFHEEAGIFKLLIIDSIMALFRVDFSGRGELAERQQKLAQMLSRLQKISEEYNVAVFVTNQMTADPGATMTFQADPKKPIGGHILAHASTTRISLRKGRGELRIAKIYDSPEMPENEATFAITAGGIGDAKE
T4 sequence 2: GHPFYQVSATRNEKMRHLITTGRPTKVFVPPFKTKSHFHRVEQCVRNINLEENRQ
The experiment in a line: EMSA.

The target in data set [5] is B1. Briefly: ITC.
Data set [6] deals with B1. Briefly: BLI. The source holds these as a separate data set.

Turning to “Biotin-GSG-VSPAAQKAFQPPRSSGTKYE-NH2 [TR2]”, the “binding to DMC1 detected by BLI” value at DMC1 [1] is listed as “No binding was detected; also recorded: no interaction could be detected”.
With “Biotin-GSG-SNHSFGGSFRTASNKEIKLSEHNIKKSKMFFKDIEE-NH2 [BRC1, reference compound]”, the “binding to DMC1 detected by BLI” value at DMC1 [1] is listed as “No binding was detected; also recorded: no interaction could be detected”.
As to “Biotin-GSG-TTGRPTKVAVPPFKTKSHFH-NH2 [PhePPmut]”, on DMC1 [1], the “binding to DMC1 detected by BLI” value is recorded as “No binding was detected”.
“F2s3: purified bacterially expressed BRCA2 fragment 2379–2433 containing the PhePP motif”: the “effect on electrophoretic mobility of the DMC1–ssDNA complex” value in the data set with DMC1–ssDNA filaments is “reduced electrophoretic mobility”.
Consider B1, for which, in the data set “crystal structure”, the “stoichiometry N” value worked out at 8.

B2: GST-tagged BRCA2 F2 R2401A (domain or fragment, human, UniProt P51587 2351-2479, looked up)
chain: APGQEFLSKSHLYEHLTLEKSSSNLAVSGHPFYQVSATRNEKMRHLITTGAPTKVFVPPFKTKSHFHRVEQCVRNINLEENRQKQNIDGHGSDDSKNKINDNEIHQFNKNNSNQAVAVTFTKCEEEPLD
For B2, the binding result in [2] was “binds”.

B3: GST-tagged BRCA2 F2s3 K2404A (domain or fragment, human, UniProt P51587 2379-2433, looked up)
chain: GHPFYQVSATRNEKMRHLITTGRPTAVFVPPFKTKSHFHRVEQCVRNINLEENRQ
In the case of B3, in [2], the binding result is “binds”.

B4: GST-tagged BRCA2 F2s3 R2401A (domain or fragment, human, UniProt P51587 2379-2433, looked up)
chain: GHPFYQVSATRNEKMRHLITTGAPTKVFVPPFKTKSHFHRVEQCVRNINLEENRQ
On to B4, for which the binding result in data set [2] is given as “binds”.

B5: biotinylated RAD51AP1 P-motif peptide (peptide)
peptide: Biotin-GSGSAESKKPKWVPPAASGGSRS-NH2
With B5, the Kd in data set [3] was around 1600 nM.

B6: biotinylated FIGNL1 P-motif peptide (peptide)
peptide: Biotin-GSGRSRGILGKFVPPIPKQDGGE-NH2
In the case of B6, the Kd in [3] was around 16200 nM.

B7: GST-tagged BRCA2 F2 K2404A (domain or fragment, human, UniProt P51587 2351-2479, looked up)
chain: APGQEFLSKSHLYEHLTLEKSSSNLAVSGHPFYQVSATRNEKMRHLITTGRPTAVFVPPFKTKSHFHRVEQCVRNINLEENRQKQNIDGHGSDDSKNKINDNEIHQFNKNNSNQAVAVTFTKCEEEPLD
On to B7, for which, in data set [2], the binding result is “binds”.

B8: GST-tagged BRCA2 F2 (2351–2479), wild type (domain or fragment, human, UniProt P51587 2351-2479, looked up)
chain: APGQEFLSKSHLYEHLTLEKSSSNLAVSGHPFYQVSATRNEKMRHLITTGRPTKVFVPPFKTKSHFHRVEQCVRNINLEENRQKQNIDGHGSDDSKNKINDNEIHQFNKNNSNQAVAVTFTKCEEEPLD
On to B8, for which the binding result in [2] is on record as “binds”.

B9: biotinylated BRCA2 F2s6 peptide (Biotin-GSG-F2s6-NH2) (peptide)
peptide: Biotin-GSGTTGRPTKVFVPPFKTKSHFH-NH2
The molecule B9 had a Kd in [3] of around 1 nM.

B10: AF-647-SK3-90 ssDNA (ssDNA)
DNA: AATTCTCATTTTACTTACCGGACGCTATTAGCAGTGGCAGATTGTACTGAGAGTGCACCATATGCGGTGTGAAATACCGCACAGATGCGT
In the case of B10, the binding result in the data set with DMC1 [4], with DMC1 F89A and with DMC1;BRCA2 F2s3 (PhePP) was “binds” in each case.

B11: BRCA2 F2s3 (2379–2433), purified recombinant peptide (domain or fragment, human, UniProt P51587 2379-2433, looked up)
chain: GHPFYQVSATRNEKMRHLITTGRPTKVFVPPFKTKSHFHRVEQCVRNINLEENRQ
With B11, in data set [5], the Kd is 3000 ± 500 nM.

B12: BRCA2 F2s6 (2398–2417) synthetic peptide (peptide)
peptide: Ac-TTGRPTKVFVPPFKTKSHFH-NH2
Regarding B12, the Kd in data set [5] came out at 3400 ± 1300 nM; in [6], 2100 ± 500 nM.

The record behind these values is PMC11229353 (Nucleic Acids Research, 2024).
